In the nanobody polyreactivity screen of Harvey et al. (2022):

Test: yeast display, Sf9 membrane polyspecificity reagent, FACS + sequencing; frameworks hold sequencing errors
Outline: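 A nanobody's polyreactivity label depends on the gate it was sorted from. Yeast display cells were stained with 10% biotinylated, detergent-solubilized Sf9 membrane reagent for 1 hour at 4 °C, enriched on streptavidin microbeads and sorted by FACS. The low and high (top ~1%) gates were set on anti-HA fluorescence for expression and streptavidin fluorescence for reagent binding.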

Row | Sequence | polyreactivity (PSR sort gate)
1 | QVQLVESGGCLVQAGGSLRLSCAASGFIFRWYAMGWYRQAPGKERELVAAISLGGSTNYADSVKGRFTISRDNAKNTVYLQMNSLKPEDTAVYYCNARYVSYSGRYVIGQYVKYDYWGKGTQVTVSS | high polyreactivity
2 | QVQLVESGGGLVQAGGSLPLSCAASGIIFSYNAKGWDRQAPGKERELDAAIRENGGSTYYADSVKGRFTISRDNAKNTVYLQMNSLKPEDTAGYYCAVATSYYAGYEYDYWGQGTQVTVSS | low polyreactivity
3 | QVQLVESGGGLVQAGGSLRLSCAASGSTFSYNAMGWYRQAPGKERELVAAISGSGGTTYYSDSVKGRFTISRDNAKNTVYLQMNSLKPEDTAVYYCAARPFRSWRYDYWGQGTQVTVSS | low polyreactivity
4 | QVQLVESGGGLVQAGGSLRLSCAASGIIFWSYVMGWYRQAPGKERELVAAITFSGGSTYYADSVKGRFTISRDNAKNTVYLQMNSLKPEDTAVYYCAARYKLVRRYDYWGQGTQVTVSS | low polyreactivity
5 | QVQLVESGGGLVQAGGSLRLSCAASGRTFSKYTMGWYRQAPGKERELVAAIDRSGGSTYYADSVKGRFSISRDNAKNTVYLQMNSLKPEDTAVYYCNTGLRYYSYRRDYWGQGTQVTVSS | high polyreactivity
6 | QVQLVESGGGLVQAGGSLRLSCDASALTIITNAMGWYRQAPGKERELVAAISGTGGSTYYADSVKGRFTISRDNAKYTVYLQMNSLKPEDTAVYYCAAAPYTFWVGDSWGQGTQVTVSS | high polyreactivity
7 | QVQLVESGGGLVQAGGSLRLSCAASGLILVYYAMGWYRQAPGKERELVAAITPGGSTKYAESVKGRFTISRDNAKNTVYLQMNSLKPEDTAVYYCNALSGPYWYYVYQSHQDDYWGQGSQVTVSS | low polyreactivity
8 | QVQLVESGVGLVQAGGSLRLSCAASGSTILQNAMGWYRQAPGKERELVAAISRSGGSTYYADSVKGRFTISRDNAKNTVYLQMNSLKPEDTAVYYCAAGGRRYDDDYWGQGTQVTVSS | high polyreactivity
9 | QVQLVESGGGLVQAGGSLRLSCAASGRIFQRNAMGWYRQAPGKVWELVAAITSTGVRTYYADSVKGRFTISRDNAKNTVYLQMNSLKPEDSAVYYCNAVGRRVRTWHDYDYWGQGTQVTVSS | high polyreactivity
10 | QVQLVESGGGLVQAGGSLRLSCAASGNIFSSNAMGWYRHAPGKEREVVAAITRSGGSTYYADSVKGRFTISRDNAKNTVYLQMNSLKPEDTAVYYCAAGKPRSKYWYDYWGQGTQVTVSS | high polyreactivity
11 | QVQLVESGGGLVQAGGSLRLSCAASGSTFSFYAMGWYRQAPGQERELVAAIRAGTRTYYADSVKGRFTISRDNAKNTVYLQMNSLKPEDTAVYYCAATRRRYPYYYWGQGTQVTVSS | high polyreactivity
12 | QVQLVESGGGLVQAGGSLRLSCAASGSTFQLYVMGWYRQAPGKERELVAAIDDGGGSTYYADSVKGRFTISRDNAKNTVYLQMNSLKPEDTAVYYCARRYGYFGYEYDYWGQGTQVTVSS | high polyreactivity
13 | QVQLVESVVGLVQAGGILRLSCSASGRTFVHYTMGWYRQAPGKETELVAAISGTGTSTYYADSVKGRFTISRDNAKNTVYLQMNSLKPEDTAVYYCARDPYFGFHMGYPRRDYWGQGTHVTVSS | low polyreactivity
14 | QVQLVESGGGLVQAGGSLRLSCAASGSTFSYYAMGWYRQAPGKERELVAAISSRGGSTYYADSVKGRFTISRDNAMNNVYLQMNSLKPEDTAVYFCNADHQFRSSVSGDHDFWGQGTQVTVSS | high polyreactivity
15 | QVQLVESGGGIVQAGGSLRLSCAASGLIFLDNAMGWYRQAPGKEREFVAAIDSGGSTNYADSVKGRFTISRDNAKNNVYLQMNSLKPEDTAVYYCAAVWIYAPWYYQESVEYYYWGQGTQVSVSS | low polyreactivity
16 | QVQLVESGGGLVQAGGSLRLSCAASGNIFTFNAMGWYRQAPGKERELVAAIRSGGSTNYADSVKGRFTISRDNAKNTVYLQMNSLKPEDTAVYYCAAKRYVQGYVYRYGYWGQGTQVTVSS | high polyreactivity
17 | QVQLVESGGGLVQAGGSLRLSCAASGSTSPDNAMGWYRPAQGKERELVAAISSGGYTYADSVKGRFTISRDNAKNTVYLQMNSLKPEDTSVYYCAKDDLYSPAAGGGYWGEGTQVTVSS | low polyreactivity
18 | QVQLVESGGGLVQAGGSLRLSCAASGFILSDNAMGWYRQAPGKEREFVAAITSSGGSTHYADSVKGRFTISRDNAKNTVYLQMNSLKPEDTAVYYCNTYPYLWGQGTQVTVSS | low polyreactivity
19 | QVQLVESGGGLVQAGGSLRLSCAASGRIFYFNGMGWYRQAPGKERELVASISASGDRTYYADSVKGRFTISRDNAKNTVYLQMNSLKPEDTAVYYCATDANTYTKYDYWGQGTQVTVSS | low polyreactivity
20 | QVQLEESGRGLLQAGGSLRISCAASGFIYGTNTMGWYRQAPGIARELVAAITSVGSTNYADSVKGRFTISRDNAKNTVYLQMNSLKPEDTAVYYCPATLYYQYGGDYWGQGTQVTVSS | low polyreactivity
21 | QVQLVESGGGLVQAGGSLRLSCAATRRIFRRNPMGWYIQAPGKERELVATISANGGSTYYADSVKGRFTISRDNAKNTVYLQMNSLKPEATAVYYCAAQGWSWYWYQKIYYWGQGTQVTVSS | high polyreactivity
22 | QVQLVESGGGLVQAGGSLRLSCAASGSTFTFYAMGSYRQAPGKERELGAAINGRGGSTYYADSVKGRFTISRDNANNTVYLQMNSLKPEDTADYYCATRLYYSVRYNMGYWGQGTQVTVSS | high polyreactivity

Row | Sequence | polyreactivity (PSR sort gate)
23 | QVQLVESGGGIVQAGGRLRLSCAASGYIFDIYAMGWNRQAPGKERELDADITRSGGGTYYADSVKGRFTISRDNAKNTVYLQMNSLKPEDTAVYYCAAESYVYGGSDYDYWGQGTQVTVSS | low polyreactivity
24 | QVQLVESGGGLVQAGGSLRLSCSASGITFWYNAMEWYRQAPGKERELVAAISRSAGSTYYADSVKGRFTISRDNAKNTVYLQMNSLKPEDTAVYYCAAKTPGRYYYWGQGTQVTVSS | high polyreactivity
25 | QVQLVESGGGVVQAGGSLRLSCSASGSTFLGYVMGWYRQAPGKEREFVAVISRSGGDTYYADSVKGRFTISRDNAKNTVYLQMNSLKPEDTAVFYCNTRVRASSVDYDEGDYWGQGTQVTVSS | low polyreactivity
26 | QVQLVESGGGLVQAGGSLRLSCAASGSTLLGNTMGWYRQAPGKERELVAAISWSGGSTYYADSVKGRFTISRDNAKNTVYLQMNSLKPEDTAVYYCNALGRENKGSYGYDYWGQGTQVTVSS | low polyreactivity
27 | QVQLVESGGGLVQAGGRLRLSCAASGSIFAGYAMGWYRQAPGKERELVAAITSSCGSTYYADSVKGRFTISRDNAKNTVYLQMNSLNPEDTAVYYCAKDKLIFYRVGSDYWGQGTQVTVSS | low polyreactivity
28 | QVQLVESGGGLVQAGGSLRLSCAASGSTFRYNAMGWYRQAPGKVRQLVAAIDKRGDSTYADSVKGRFTISRDNAKNTVYLQMNSLKPEDTAVYYCAADSDSKYNYGFLWDTYEYWGQGTQVTVSS | low polyreactivity
29 | QVQLVESGGGLFQAGGSLRLSCAASGRIFGFYAMGWYRQAPGKERELVARITLSGGRTYYADSVKGRFTISRDNAKNTVYLQMNSLKPEDTAVYYCAADSIGRLWGYGYWGQGTQVTVSS | high polyreactivity
30 | QVQLVESGGGLVQAGGSLRLSCAASGFTFNRYVMGWYRQAPGKERELVAAISGGGARTYYADSVKGRFTISRDNAKNTVYLQMNSLKPEDTAVYYCNARYKSHSVSDYYYWGQGTQVTVSS | high polyreactivity
31 | QVQLVESGGGLVQAGGSLRLSCAASGSIFADYAMGWYRQAPGKERELVAAITGSGGRTYYADSVKGRFTISRDNAKNTVYLQMNSLKPEDTAVYYCAAYQVVWDPYTRYDYWGQGTQVTVSS | low polyreactivity
32 | QVQLVESGGGLVQAGGSLRLSCPASGSTFTLYVMGWYRPAPGKERELVAAISSNGGRTYYADSVKGRFTISRDNAKNTVYLQMNSLKPEDTAVYDCAAGKIGRYHYDYWGQGTQVTVSS | high polyreactivity
33 | QVQLVESGGGIVQAGGSLRLSCAASGFTYDENAMGWYRQAPGINYSGASTYYAESVKGRFTISRDNAKNTVYLQMNSLKPEDTAVYYCAAEVVAQMNYWGQGTQVTVSS | low polyreactivity
34 | QVQLVESGGGLFQAGGSLRLSCAASGTFYIYAMGWYRQAPGKERELVAGISFSGGSTYYADSVKGRFTISRDNAKNTVYLQMNSLKPEDTAVYYCAAELYVLPYDYWGQGTQVTVSS | high polyreactivity
35 | QVQLVESGGGLVQAGGSLRLSCAASGSILFANAMGWYRQAPGKERELVAAIRGSGSTYYADSVKGRFTISRDNAKNTVYLQMNSLKPEDTAVYYCAKRHLISIPDYGRHEYDYWGQGTQVTVSS | low polyreactivity
36 | QVQLVESGGGLVQAGGSLRLSCAASGRTFRYNAMGWYRQAPGKERELVAAISGRGSSTYYSDSVKGRFTISRDNAKNTVYLQMNSLTPEDTAVYYCAALPASVRRPAWHDYWGQGTQVTVSS | high polyreactivity
37 | QVLLQESGGGLVQAGGSLRLGCAASGTISPAYYMGRYHQAPGKEREFVAAITYGTNTYYADSVKGRFTISRDNAKNNVYLQMNSLKPEDTAVYYCSASAGYNGAHDYWGQGTQVTVSS | low polyreactivity
38 | QGQLVESGGGLVQAGGSLRLSCAASGIIFILYTMGWYRQAPGKEREFVATISSGGGSTFYADSVKGRFTISRDNAKNTVYLQMNSLKPEDTAVYYCAAEQLYYCERYYIWGYYYWGQGTQVTVSS | low polyreactivity
39 | QVQLVESGGGLVPAGGSLRLTCAASGSTFGDYAMGWYRQAPGKERELVAAINFSDGSTYYADSVKGRFTISRDNAKNTVYLQMNSLKPEDTAVYYCAAYTYYDGVYGFDYWGQGTQVTVSS | low polyreactivity
40 | QVQLVESGGGLVQAGGSLRLSCAASGLIFYLYAMGWYRQAPGKERELVAAFTYSGGSTRYADSVKGRFTISRDNAKNTVYLQMNSLKPEDTAVYYCNADGTAPTEMDYWGQGTQVTVSS | low polyreactivity
41 | QVQLVESGGGLVQAGGSLRLSCAASGRTFNLYAMVWSRQAPGKERELVAAISLSGGRTYYADSVKGRITISRDNAKNTVFLQMNRLNPEDTAVYYCNTDTSRRAVQYDYWGQGTQVSVSS | high polyreactivity
42 | QVQLVESGGGLVHAGGSLRLSCAASGSTFFLYAMGWYRQAHGKERELVAAISSDGSTYYADSVKGRFTISRDNAKHTVYLQMNSLKPEDTAVYYCAAEYTPSYYEYYYWGQGTQVTVSS | low polyreactivity
43 | QVQLVESGGGLVQAGGSLRLSCAASGSIFVKNAMGWYRQAPGKERELVARSSFSGGSTYYADSVKGRFTISRDNAKNTVYLQMNSLKPEDTAVYYCAVDGGEFSSYGYWGQGTQVTVSS | low polyreactivity
